From PMC12408356 (Nature Microbiology, 2025)

Target: T1, JUNV GPC MC2-TS (wild-type Junin virus glycoprotein complex) (Junin virus, MC2 strain, UniProt P26313, myristoyl on G2 | N-linked glycans | N-linked glycans)
T1 construct: copies: 3 + 3 + 3
Test: flow cytometry on cells
Conditions: one partner purified

T1 sequence (P26313 2-58, chain 1 of 3): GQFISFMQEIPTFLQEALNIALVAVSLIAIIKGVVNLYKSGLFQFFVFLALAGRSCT
T1 sequence (P26313 59-251, chain 2 of 3): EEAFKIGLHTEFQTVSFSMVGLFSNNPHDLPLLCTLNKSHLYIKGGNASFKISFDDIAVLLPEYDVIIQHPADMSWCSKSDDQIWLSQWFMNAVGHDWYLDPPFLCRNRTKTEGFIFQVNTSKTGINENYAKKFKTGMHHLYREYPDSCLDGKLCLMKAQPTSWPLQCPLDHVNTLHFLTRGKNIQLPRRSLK
T1 sequence (P26313 252-485, chain 3 of 3): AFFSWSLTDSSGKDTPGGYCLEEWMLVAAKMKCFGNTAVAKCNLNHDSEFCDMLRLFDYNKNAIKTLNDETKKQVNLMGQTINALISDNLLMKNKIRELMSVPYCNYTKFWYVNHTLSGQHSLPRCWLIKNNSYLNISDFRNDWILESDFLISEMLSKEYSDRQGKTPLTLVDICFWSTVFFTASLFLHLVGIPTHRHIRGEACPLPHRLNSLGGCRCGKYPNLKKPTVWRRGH

B1: CR1-07 (antibody, V domains shown)
VH: QVQLVESGGGVVHPGRSLRLSCAASGFTFGTSIMHWVRQAPGKGMQWVAQISHDESRKFYSDSVKGRFTVSRDNSKNTLFLEMSSLRIEDTAVYYCAKDLSPPYSYAWDIFQYWGQGSLVTVS
VL: DIVMTQSPESLAVSLGERATINCKSSQSVLYSSRSDNKDYLAWYQQKPGQSPKLLIYWASTRESGVPERFTGSGSGTDFTLSISSLQAEDVAVYYCQQYYSSPPTFGGGTKVELK
  binding result: binds

B2: CR1-10 (antibody, V domains shown)
VH: QVQLQESGPGLVKPSQTLSLTCSVSGGSIGGSSYYWSWIRHHPGKGLEWIGYINYRGITHYNAALKSRVSMSVETSQNHFSLQLTSVTAADTAVYYCARLTSDCSGGNCYQAFDYWGQGSLVSVS
VL: EIVLTQSPGTLSLSPGETATLSCRASQSVSSSYLAWYQQKPGQAPRLLIYGASGRATGIPDRFSGSGSGTDFTLTISRLEPEDFAVYYCQQYGRSGYTFGQGTKLEIK
  binding result: binds

B3: CR1-28 (antibody, V domains shown)
VH: QVQLVESGGGVVQPGRSLRLSCAASGFTFSSSAMHWVRQAPGKGLEWVAVIWSDGSNENYADSVKGRFTISRDNSKNTLYLQMSSLRAEDTAVYYCATDKTYVSGYTSTWYYFNYWGQGTLVTVS
VL: DIQMTQSPSTLSASVGDRVTITCRASQSIDNWLAWYQQKPGKAPKLLIYTASRLESGVPSRFSGSGSGTEFTLTISSLQPDDFATYYCQHRTFGQGTKVEIK
  binding result: binds
